{"source": "patent US7888089B2", "about": "“eNOS mutations useful for gene therapy and therapeutic screening” (Yale University, priority 1999, dated 2011)", "molecules": {"B1": {"name": "Wild type: Wild type bovine endothelial nitric oxide synthase (eNOS) (protein, UniProt P29473 2-1205, looked up)", "Nitric oxide synthase 3": "GNLKSVGQEPGPPCGLGLGLGLGLCGKQGPASPAPEPSRAPAPATPHAPDHSPAPNSPTLTRPPEGPKFPRVKNWELGSITYDTLCAQSQQDGPCTPRCCLGSLVLPRKLQTRPSPGPPPAEQLLSQARDFINQYYSSIKRSGSQAHEERLQEVEAEVASTGTYHLRESELVFGAKQAWRNAPRCVGRIQWGKLQVFDARDCSSAQEMFTYICNHIKYATNRGNLRSAITVFPQRAPGRGDFRIWNSQLVRYAGYRQQDGSVRGDPANVEITELCIQHGWTPGNGRFDVLPLLLQAPDEAPELFVLPPELVLEVPLEHPTLEWFAALGLRWYALPAVSNMLLEIGGLEFSAAPFSGWYMSTEIGTRNLCDPHRYNILEDVAVCMDLDTRTTSSLWKDKAAVEINLAVLHSFQLAKVTIVDHHAATVSFMKHLDNEQKARGGCPADWAWIVPPISGSLTPVFHQEMVNYILSPAFRYQPDPWKGSATKGAGITRKKTFKEVANAVKISASLMGTLMAKRVKATILYASETGRAQSYAQQLGRLFRKAFDPRVLCMDEYDVVSLEHEALVLVVTSTFGNGDPPENGESFAAALMEMSGPYNSSPRPEQHKSYKIRFNSVSCSDPLVSSWRRKRKESSNTDSAGALGTLRFCVFGLGSRAYPHFCAFARAVDTRLEELGGERLLQLGQGDELCGQEEAFRGWAKAAFQASCETFCVGEEAKAAAQDIFSPKRSWKRQRYRLSTQAEGLQLLPGLIHVHRRKMFQATVLSVENLQSSKSTRATILVRLDTAGQEGLQYQPGDHIGICPPNRPGLVEALLSRVEDPPPPTESVAVEQLEKGSPGGPPPSWVRDPRLPPCTLRQALTFFLDITSPPSPRLLRLLSTLAEEPSEQQELETLSQDPRRYEEWKWFRCPTLLEVLEQFPSVALPAPLLLTQLPLLQPRYYSVSSAPNAHPGEVHLTVAVLAYRTQDGLGPLHYGVCSTWLSQLKTGDPVPCFIRGAPSFRLPPDPYVPCILVGPGTGIAPFRGFWQERLHDIESKGLQPAPMTLVFGCRCSQLDHLYRDEVQDAQERGVFGRVLTAFSREPDSPKTYVQDILRTELAAEVHRVLCLERGHMFVCGDVTMATSVLQTVQRILATEGDMELDEAGDVIGVLRDQQRYHEDIFGLTLRTQEVTSRIRTQSFSLQERHLRGAVPWAFDPPGPDTPGP"}, "B2": {"name": "S1179D: bovine eNOS with serine 1179 mutated to aspartic acid (protein)", "chain": "B1 Nitric oxide synthase 3 with S1178D"}}, "key": {"COS cells": {"system": "COS cells", "test": "cGMP accumulation in transfected COS cells as bioassay for NO", "assay_type": "cell-based", "conditions": "eNOS alone or eNOS with Akt construct", "from_the_text": "(§1) Cell Transfections: The bovine eNOS, human iNOS, rat nNOS cDNAs in pcDNA3 and HA-tagged wild-type Akt, Akt (K179M) or myr-Akt in pCMV6 were generated by standard cloning methods. The myr-nNOS in pcDNA3 was generated by PCR, incorporating a new amino terminus containing the eNOS N-myristoylation consensus site (MGNLKSVG, SEQ ID NO:1) fused in frame to the second amino acid of the nNOS coding sequence. […] Mutation of the putative Akt phosphorylation sites in eNOS were generated using the Quick Change site-directed mutagenesis kit (Stratagene) according to the manufacturers instructions. All mutants were verified by DNA sequencing. COS-7 cells were plated (100 mm dish) and transfected with the NOS (7.5-30 mg) and Akt (1 mg) plasmids using calcium phosphate. To balance all transfections, the expression vector for β-galactosidase cDNA was used. Twenty-four to forty-eight hours after transfection, the expression of appropriate proteins (40-80 mg) were confirmed by Western blot analysis using eNOS mAb (9D10, Zymed), HA mAb (12CA5, Boehringer Mannheim), iNOS pAb (Zymed Laboratories) or nNOS mAb (Zymed Laboratories).\nNO release from transfected COS cells: 24-48 hrs after transfection, media was processed for the measurement of nitrite (NO2^−), the stable breakdown product of NO in aqueous solution, by NO specific chemiluminescence as described (Sessa et al., 1995). […]"}, "Akt": {"system": "Akt", "test": "In vitro kinase reaction with Akt immunoprecipitated from COS cells", "assay_type": "biochemical", "conditions": "HA-Akt immunoprecipitate, n=3"}, "COS-7 cells": {"system": "COS-7 cells", "test": "NO release (NO2−, chemiluminescence) from transfected COS cells", "assay_type": "cell-based", "conditions": "NOS construct co-transfected with Akt", "from_the_text": "as §1\nNO release from transfected COS cells: 24-48 hrs after transfection, media was processed for the measurement of nitrite (NO2^−), the stable breakdown product of NO in aqueous solution, by NO specific chemiluminescence as described (Sessa et al., 1995). Media was deproteinized and samples containing NO2^− were refluxed in glacial acetic acid containing sodium iodide. […] In all experiments, NO2^− release was inhibitable by a NOS inhibitor. In addition, NO2^−-release from cells transfected with the β-galactosidase cDNA was subtracted to control for background levels of NO2^− found in serum or media. In some experiments, cGMP accumulation in COS was used as a bioassay for the production of NO as described."}}, "note": "Positions count from the first letter of the chain named. Names and notes keep the numbering of the source."}
{"molecule": "B1", "values": [{"measurement": "cGMP accumulation", "setting": "COS cells", "result": "5.5±0.8", "unit": "pmol cGMP/mg protein"}, {"measurement": "phosphorylation of substrate by active Akt", "setting": "Akt", "result": "115.4±3.8 pmol of ATP/nmol substrate"}]}
{"molecule": "B2", "values": [{"measurement": "Akt dependent NO release / activation of NOS construct", "setting": "COS-7 cells", "result": "partially mimics the activation state induced by Akt"}]}
